Among the data in patent US20110052597A1 (CSL, published 2011) are Kd values, retold here.

For assay [1], the target named is T1, N-terminal FLAG-tagged fusion protein including most of the extracellular region of human IL-13Rα1 (human, UniProt P78552 29-343).
T1 construct: also called hIL-13Rα1.ECR; Human IL-13Rα1.ECR
T1 sequence: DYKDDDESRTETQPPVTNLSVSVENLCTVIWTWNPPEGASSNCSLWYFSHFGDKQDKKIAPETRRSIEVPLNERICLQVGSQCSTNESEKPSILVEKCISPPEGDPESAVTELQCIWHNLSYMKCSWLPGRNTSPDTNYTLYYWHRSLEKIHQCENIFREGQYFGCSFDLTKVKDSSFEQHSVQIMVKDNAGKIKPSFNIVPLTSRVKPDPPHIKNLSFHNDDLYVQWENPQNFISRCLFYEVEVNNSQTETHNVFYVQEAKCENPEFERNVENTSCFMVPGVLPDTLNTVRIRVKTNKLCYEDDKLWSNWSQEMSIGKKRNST
Description: BIACORE, hIL-13Rα1.ECR immobilized on CM5 chip, mAb in solution, bivalent model. Background: SPR reads the build-up and loss of mass on a sensor chip optically.
Description: BIACORE™-Based Studies. […] Ethanolamine (1.0 M), pH 8.0 was used to quench residual active esters post hIL-13Rα1.ECR immobilization.
Sensorgrams generated were fitted to a bivalent ligand binding model to simultaneously derive association (kₐ) and dissociation (kd) rates and used to determine binding affinity (KD, Biaevaluation software, BIACORE™, Sweden).

Assay [2] deals with T2, cynomolgus IL-13Rα1.ECR, N-terminal FLAG-tagged fusion protein (cynomolgus macaque, UniProt P78552 27-343 (human entry)).
T2 construct: also called cyIL-13Rα1; Cynomolgus IL13Rα.ECR; not shown: N-terminal FLAG tag from the pEFBOS-S-FLAG vector
T2 chain: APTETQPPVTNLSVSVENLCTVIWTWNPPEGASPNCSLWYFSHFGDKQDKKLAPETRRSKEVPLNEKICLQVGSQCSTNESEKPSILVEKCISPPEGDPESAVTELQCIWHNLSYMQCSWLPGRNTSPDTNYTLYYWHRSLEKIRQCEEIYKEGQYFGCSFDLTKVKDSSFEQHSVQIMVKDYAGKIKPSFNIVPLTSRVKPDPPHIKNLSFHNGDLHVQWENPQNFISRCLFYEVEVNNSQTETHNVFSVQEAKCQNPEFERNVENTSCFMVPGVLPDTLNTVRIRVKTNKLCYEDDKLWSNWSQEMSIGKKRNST
Description: BIACORE, receptor ECR immobilized on CM5 chip, mAb in solution.

In assay [3] the target is T1, N-terminal FLAG-tagged fusion protein …. The assay is described as above.

B1: human monoclonal antibody 15F4 (antibody, V domains shown)
VH: QVQLVESGGGVVQPGRSLRLSCAASGFTFSSYGMHWVRQAPGKGLEWVAVIWDDGSNKYYEVSVKGRFTISRDNSKNTLYLQMNSLRVEDTAVYYCARDSNNWYVGVFDIWGQGTMVTVSS
VL: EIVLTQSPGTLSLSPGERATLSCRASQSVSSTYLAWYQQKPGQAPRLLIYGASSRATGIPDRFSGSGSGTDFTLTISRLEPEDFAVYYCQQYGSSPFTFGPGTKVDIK
notes: also called mAb 15F4; hybridoma ATCC PTA-6935
The molecule B1 yielded a Kd in assay [1] of around 2.17 nM.

B2: monoclonal antibody 8B4 (antibody, V domains shown)
VH: EVQVLESGGGLVQPGGSLRLSCAASGFTFSNYAMTWVRQAPGKGLEWVSTISGRGYSIYYADSVKGRFTISRDNSKNTVYLQMNSLRAEDTAVYYCAKEEGHWYFDVWGRGTLVTVSS
VL: EIVLTQSPDFQSVTPKEKVTITCRASQSIGSSLHWYQQKPDQSPKLLIKYASQSFSGVPSRFSGSGSGTDFTLTINSLEAEDAAAYYCHQSSSLPYTFGQGTKLEIK
In the case of B2, the Kd is 0.59 nM in assay [2] and 4.6 nM in assay [3].
